The numbers were not newly measured in paper PMC10565355, which cites them from elsewhere.

This data set addresses Fibrinogen (Homo sapiens) (UniProt P02671).
Chain of UniProt P02671 (P02671 36-866, chain 1 of 3): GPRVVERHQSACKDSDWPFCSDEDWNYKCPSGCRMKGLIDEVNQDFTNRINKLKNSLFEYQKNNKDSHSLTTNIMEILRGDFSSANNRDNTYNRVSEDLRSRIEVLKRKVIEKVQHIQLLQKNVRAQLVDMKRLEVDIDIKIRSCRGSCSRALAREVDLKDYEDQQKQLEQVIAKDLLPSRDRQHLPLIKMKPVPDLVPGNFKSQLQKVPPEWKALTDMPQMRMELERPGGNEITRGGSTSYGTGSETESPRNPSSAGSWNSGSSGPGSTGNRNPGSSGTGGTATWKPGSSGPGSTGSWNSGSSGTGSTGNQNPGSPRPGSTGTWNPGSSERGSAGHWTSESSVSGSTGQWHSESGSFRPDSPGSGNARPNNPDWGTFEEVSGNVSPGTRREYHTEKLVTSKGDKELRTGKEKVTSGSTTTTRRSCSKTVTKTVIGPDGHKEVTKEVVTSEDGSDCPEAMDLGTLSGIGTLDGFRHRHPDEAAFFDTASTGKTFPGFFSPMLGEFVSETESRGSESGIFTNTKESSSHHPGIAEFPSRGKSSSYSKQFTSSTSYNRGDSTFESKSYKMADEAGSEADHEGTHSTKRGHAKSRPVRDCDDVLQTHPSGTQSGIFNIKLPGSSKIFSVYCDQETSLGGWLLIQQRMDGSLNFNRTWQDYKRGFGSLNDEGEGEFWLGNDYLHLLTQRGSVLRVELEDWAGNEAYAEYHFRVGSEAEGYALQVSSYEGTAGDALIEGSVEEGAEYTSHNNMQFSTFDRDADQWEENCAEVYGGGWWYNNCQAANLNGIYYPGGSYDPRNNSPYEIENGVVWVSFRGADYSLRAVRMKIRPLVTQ
Chain of UniProt P02671 (P02675 45-491, chain 2 of 3, further chain): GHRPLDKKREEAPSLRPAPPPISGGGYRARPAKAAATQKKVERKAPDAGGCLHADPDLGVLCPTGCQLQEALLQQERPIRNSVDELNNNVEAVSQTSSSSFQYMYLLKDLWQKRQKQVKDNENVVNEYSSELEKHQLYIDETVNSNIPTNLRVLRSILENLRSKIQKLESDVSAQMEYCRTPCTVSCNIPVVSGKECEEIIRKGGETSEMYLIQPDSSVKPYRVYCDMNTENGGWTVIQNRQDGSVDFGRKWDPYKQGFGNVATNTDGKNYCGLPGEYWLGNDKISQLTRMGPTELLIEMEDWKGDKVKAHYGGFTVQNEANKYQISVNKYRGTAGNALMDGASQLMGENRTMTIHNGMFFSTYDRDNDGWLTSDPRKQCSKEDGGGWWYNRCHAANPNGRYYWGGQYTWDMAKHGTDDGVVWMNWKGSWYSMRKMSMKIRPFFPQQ
Chain of UniProt P02671 (P02679 27-453, chain 3 of 3, further chain): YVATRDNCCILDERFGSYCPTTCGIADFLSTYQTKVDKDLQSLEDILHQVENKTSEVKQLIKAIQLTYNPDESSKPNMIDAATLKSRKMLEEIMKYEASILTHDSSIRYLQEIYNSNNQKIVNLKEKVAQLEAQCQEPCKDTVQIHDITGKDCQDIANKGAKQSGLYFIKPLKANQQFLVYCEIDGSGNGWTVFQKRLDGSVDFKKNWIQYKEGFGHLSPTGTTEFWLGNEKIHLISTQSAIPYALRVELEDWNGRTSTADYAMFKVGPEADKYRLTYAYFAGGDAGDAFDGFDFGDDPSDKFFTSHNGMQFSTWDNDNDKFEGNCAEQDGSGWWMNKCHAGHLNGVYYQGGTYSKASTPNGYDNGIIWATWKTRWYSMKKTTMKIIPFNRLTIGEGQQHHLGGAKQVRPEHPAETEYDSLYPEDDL

Take Efb EfbA (from UniProt A6QG59): the Kd (commonly the constant that tells how readily two partners part at equilibrium) is 1000 nM.
